Patent EP4703382A1 (Kanglitai Biomedical (Qingdao) Co., Ltd., dated 2026)
Numbering of substitutions follows the chain as printed. Values joined by “and” are separate entries in the source; they are usually repeats but may differ in a detail not shown here. Equal entries are not always repeated.

B1: PDL1-1v18 (VHH)
VHH: QVQLVESGGGLVKPGGSLRLSCAASGFTVSNSAVSWARQAPGKGLEWVSLIDSNRNTVYAQSVRGRFTISRDNAKNSVYLQMNSLRAEDTAVYYCAKGIWGSTLTGQGTTVTVSS
notes: Humanized PDL1-1, His-tagged
B2: PDL1-1v11 (VHH)
VHH: B1 VHH with V5Q, T105W
notes: Humanized PDL1-1, His-tagged
B3: PDL1-1v8 (VHH)
VHH: B1 VHH with Q1E, V5L, K13Q, A74S, S77T
notes: Humanized PDL1-1, His-tagged
B4: PDL1-1v14 (VHH)
VHH: B1 VHH with A74V, T105W
notes: Humanized PDL1-1, His-tagged
B5: PDL1-1v19 (VHH)
VHH: B1 VHH with T105W, T110Q
notes: Humanized PDL1-1, His-tagged
B6: Fusion 2 (other, murine)
chain 1: RVIPVSGPARCLSQSRNLLKTTDDMVKTAREKLKHYSCTAEDIDHEDITRDQTSTLKTCLPLELHKNESCLATRETSSTTRGSCLPPQKTSLMMTLCLGSIYEDLKMYQTEFQAINAALQNHNHQQIILDKGMLVAIDELMQSLNHNGETLRQKPPVGEADPYRVKMKLCILLHAFSTRVVTINRVMGYLSSAHHHHHH
chain 2: MWELEKDVYVVEVDWTPDAPGETVNLTCDTPEEDDITWTSDQRHGVIGSGKTLTITVKEFLDAGQYTCHKGGETLSHSHLLLHKKENGIWSTEILKNFKNKTFLKCEAPNYSGRFTCSWLVQRNMDLKFNIKSSSSSPDSRAVTCGMASLSAEKVTLDQRDYEKYSVSCQEDVTCPTAEETLPIELALEARQQNKYENYSTSFFIRDIIKPDPPKNLQMKPLKNSQVEVSWEYPDSWSTPHSYFSLKFFVRIQRKKEKMKETEEGCNQKGAFLVEKTSTEVQCKGGNVCVQAQDRYYNSSCSKWACVPCRVRSGGGGSGGGGSGGGGSQVQLQESGGGLVQPGGSLTLSCAASGFTVSNSAVSWARQAPGKGLEWVSLIDSNRNTVYAQSVRGRFTISRDNVKNTVYLQMNSLKPEDTAVYYCAKGIWGSTLTGQGTQVTVSS
notes: PDL1-1 nanobody fused with murine IL-12; two plasmids co-transfected 1:1; also called mP35-6his + mP40-P1
B7: Fusion 4 (other, murine)
chain 1: B6 chain 1
chain 2: QVQLQESGGGLVQPGGSLTLSCAASGFTVSNSAVSWARQAPGKGLEWVSLIDSNRNTVYAQSVRGRFTISRDNVKNTVYLQMNSLKPEDTAVYYCAKGIWGSTLTGQGTQVTVSSGGGGSGGGGSGGGGSMWELEKDVYVVEVDWTPDAPGETVNLTCDTPEEDDITWTSDQRHGVIGSGKTLTITVKEFLDAGQYTCHKGGETLSHSHLLLHKKENGIWSTEILKNFKNKTFLKCEAPNYSGRFTCSWLVQRNMDLKFNIKSSSSSPDSRAVTCGMASLSAEKVTLDQRDYEKYSVSCQEDVTCPTAEETLPIELALEARQQNKYENYSTSFFIRDIIKPDPPKNLQMKPLKNSQVEVSWEYPDSWSTPHSYFSLKFFVRIQRKKEKMKETEEGCNQKGAFLVEKTSTEVQCKGGNVCVQAQDRYYNSSCSKWACVPCRVRS
notes: PDL1-1 nanobody fused with murine IL-12; two plasmids co-transfected 1:1; also called mP35-6his + P1-mP40
B8: Fusion 1 (other, murine)
chain 1: RVIPVSGPARCLSQSRNLLKTTDDMVKTAREKLKHYSCTAEDIDHEDITRDQTSTLKTCLPLELHKNESCLATRETSSTTRGSCLPPQKTSLMMTLCLGSIYEDLKMYQTEFQAINAALQNHNHQQIILDKGMLVAIDELMQSLNHNGETLRQKPPVGEADPYRVKMKLCILLHAFSTRVVTINRVMGYLSSAGGGGSGGGGSGGGGSQVQLQESGGGLVQPGGSLTLSCAASGFTVSNSAVSWARQAPGKGLEWVSLIDSNRNTVYAQSVRGRFTISRDNVKNTVYLQMNSLKPEDTAVYYCAKGIWGSTLTGQGTQVTVSSHHHHHHHH
chain 2: MWELEKDVYVVEVDWTPDAPGETVNLTCDTPEEDDITWTSDQRHGVIGSGKTLTITVKEFLDAGQYTCHKGGETLSHSHLLLHKKENGIWSTEILKNFKNKTFLKCEAPNYSGRFTCSWLVQRNMDLKFNIKSSSSSPDSRAVTCGMASLSAEKVTLDQRDYEKYSVSCQEDVTCPTAEETLPIELALEARQQNKYENYSTSFFIRDIIKPDPPKNLQMKPLKNSQVEVSWEYPDSWSTPHSYFSLKFFVRIQRKKEKMKETEEGCNQKGAFLVEKTSTEVQCKGGNVCVQAQDRYYNSSCSKWACVPCRVRS
notes: PDL1-1 nanobody fused with murine IL-12; two plasmids co-transfected 1:1; also called mP35-P1-8his + mP40
B9: Fusion 3 (other, murine)
chain 1: QVQLQESGGGLVQPGGSLTLSCAASGFTVSNSAVSWARQAPGKGLEWVSLIDSNRNTVYAQSVRGRFTISRDNVKNTVYLQMNSLKPEDTAVYYCAKGIWGSTLTGQGTQVTVSSGGGGSGGGGSGGGGSRVIPVSGPARCLSQSRNLLKTTDDMVKTAREKLKHYSCTAEDIDHEDITRDQTSTLKTCLPLELHKNESCLATRETSSTTRGSCLPPQKTSLMMTLCLGSIYEDLKMYQTEFQAINAALQNHNHQQIILDKGMLVAIDELMQSLNHNGETLRQKPPVGEADPYRVKMKLCILLHAFSTRVVTINRVMGYLSSAHHHHHHHH
chain 2: B8 chain 2
notes: PDL1-1 nanobody fused with murine IL-12; two plasmids co-transfected 1:1; also called P1-mP35-8his + mP40
B10: PDL1-1v13 (VHH)
VHH: B1 VHH with R19T, T105W
notes: Humanized PDL1-1, His-tagged
B11: PDL1-1v17 (VHH)
VHH: B1 VHH with A87P, T105W
notes: Humanized PDL1-1, His-tagged
B12: PDL1-1v12 (VHH)
VHH: B1 VHH with K13Q, T105W
notes: Humanized PDL1-1, His-tagged
B13: PDL1-1v2 (VHH)
VHH: B1 VHH with T105W
notes: Humanized PDL1-1, His-tagged
B14: PDL1-1v20 (VHH)
VHH: B1 VHH with D52A, T105W
notes: Humanized PDL1-1, His-tagged
B15: PDL1-1v15 (VHH)
VHH: B1 VHH with S77T, T105W
notes: Humanized PDL1-1, His-tagged
B16: PDL1-1v16 (VHH)
VHH: B1 VHH with R86K, T105W
notes: Humanized PDL1-1, His-tagged
B17: PDL1-1v7 (VHH)
VHH: B1 VHH with Q1E, V5L, K13Q, A74S, S77T, A87P, T105W
notes: Humanized PDL1-1, His-tagged
B18: PDL1-1v3 (VHH)
VHH: B1 VHH with V5L, K13Q, A74S, S77T, T105W
notes: Humanized PDL1-1, His-tagged
B19: PDL1-1v1 (VHH)
VHH: B1 VHH with Q1E, V5L, K13Q, A74S, S77T, T105W
notes: Humanized PDL1-1, His-tagged, from 293-F
B20: PDL1-1v9 (VHH)
VHH: B1 VHH with Q1E, V5L, K13Q, A74S, S77T, T105W, T110Q
notes: Humanized PDL1-1, His-tagged
B21: PDL1-1v4 (VHH)
VHH: B1 VHH with Q1E, V5Q, K13Q, A74S, S77T, T105W
notes: Humanized PDL1-1, His-tagged
B22: PDL1-1v10 (VHH)
VHH: B1 VHH with Q1E, V5L, K13Q, D52A, A74S, S77T, T105W
notes: Humanized PDL1-1, His-tagged
B23: PDL1-1v6 (VHH)
VHH: B1 VHH with Q1E, V5L, K13Q, A74S, S77T, R86K, T105W
notes: Humanized PDL1-1, His-tagged

Each binder was assayed against T1, human PD-L1 expressed on Raji cells (human, UniProt Q9NZQ7 19-290) (assay: flow cytometry competition on Raji-PDL1 cells, competitor PD1-Fc).
T1 construct: whole, on cells; also called Raji-PDL1; PDL1 protein expressed on Raji cells
T1 sequence (Q9NZQ7 19-290): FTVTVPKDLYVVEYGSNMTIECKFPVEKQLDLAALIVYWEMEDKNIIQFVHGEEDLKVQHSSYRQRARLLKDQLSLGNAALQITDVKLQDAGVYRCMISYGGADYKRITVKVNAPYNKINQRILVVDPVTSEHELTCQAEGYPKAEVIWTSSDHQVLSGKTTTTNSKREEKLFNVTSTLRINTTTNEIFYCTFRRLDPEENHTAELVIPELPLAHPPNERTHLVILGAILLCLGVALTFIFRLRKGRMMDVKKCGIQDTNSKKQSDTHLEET

IC50 | Binder
0.694 µg/mL | B1
2.48 µg/mL | B2
0.458 µg/mL | B3
4.58 µg/mL | B4
2.59 µg/mL | B5

What follows are binders tested against T2, human PDL1-Fc fusion protein (human) (assay: ELISA, human PDL1-Fc coated 200 ng/well, anti-His HRP).
T2 construct: also called human PDL1-Fc recombinant protein
T2 sequence (chain, as listed by the source limits assumed): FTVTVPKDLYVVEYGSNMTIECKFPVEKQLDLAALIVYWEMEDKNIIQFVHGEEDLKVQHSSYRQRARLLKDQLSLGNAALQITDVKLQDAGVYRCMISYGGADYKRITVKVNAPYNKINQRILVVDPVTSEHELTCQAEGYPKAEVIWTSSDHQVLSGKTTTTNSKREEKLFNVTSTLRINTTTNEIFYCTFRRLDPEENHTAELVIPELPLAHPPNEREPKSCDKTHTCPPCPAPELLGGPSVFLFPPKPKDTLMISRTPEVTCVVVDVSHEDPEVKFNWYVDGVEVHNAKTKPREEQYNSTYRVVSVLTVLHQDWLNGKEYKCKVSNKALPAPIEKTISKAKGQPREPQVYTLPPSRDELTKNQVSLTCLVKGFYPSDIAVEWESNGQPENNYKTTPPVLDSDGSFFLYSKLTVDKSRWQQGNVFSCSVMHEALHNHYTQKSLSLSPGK

EC50 | Binder
4.1 µg/mL and 54.3 nM | B6
0.75 µg/mL and 9.91 nM | B7
0.373 µg/mL and 4.93 nM | B8
0.251 µg/mL and 3.33 nM | B9

Target: T2, human PDL1-Fc fusion protein
Assay: as above
Remark: another data set of the same source

EC50 | Binder
0.0182 µg/mL | B1
0.0461 µg/mL | B10
0.0664 µg/mL | B11
1.24 µg/mL | B12
0.0591 µg/mL | B13
0.0484 µg/mL | B5
0.875 µg/mL | B14

Target: T2, human PDL1-Fc fusion protein
Assay: as above
Remark: another data set of the same source

EC50 | Binder
0.0432 µg/mL | B15
0.02 µg/mL | B2
0.0342 µg/mL | B4
0.0423 µg/mL | B13
0.0629 µg/mL | B16

The binders below were run against T2, human PDL1-Fc fusion protein (assay: BLI (ForteBIO Octet QKe), PDL1-Fc loaded, analyte 100 nM).

Kd | Binder
10.8 nM | B15
4.16 nM | B1
10.9 nM | B17
5.86 nM | B2
5.9 nM | B3
11.4 nM | B10
10.2 nM | B11
18.5 nM | B18
13.1 nM | B19
7.37 nM | B4
389 nM | B12
14.3 nM | B13
12.1 nM | B20
9.86 nM | B5
32.5 nM | B14
1320 nM | B21
14.3 nM | B16
30.5 nM | B22
22.1 nM | B23

Target: T2, human PDL1-Fc fusion protein
Assay: ELISA, human PDL1-Fc coated 200 ng/well, anti-His HRP
Remark: another data set of the same source

EC50 | Binder
0.0108 µg/mL | B3
0.0336 µg/mL | B18
0.0275 µg/mL | B19
~110 µg/mL | B22
0.0505 µg/mL | B23

Target: T2, human PDL1-Fc fusion protein
Assay: as above
Remark: another data set of the same source

EC50 | Binder
0.028 µg/mL | B17
0.0251 µg/mL | B19
0.026 µg/mL | B20
4 µg/mL | B21

What follows are binders tested against T3, recombinant protein PD-L1-His (human, UniProt Q9NZQ7 19-238) (assay: competitive ELISA, PDL1-his coated, competitor PD1-Fc 50 µg/mL).
T3 construct: also called PD-L1-his fusion protein; human PDL1-his protein
T3 sequence (Q9NZQ7 19-238 limits assumed): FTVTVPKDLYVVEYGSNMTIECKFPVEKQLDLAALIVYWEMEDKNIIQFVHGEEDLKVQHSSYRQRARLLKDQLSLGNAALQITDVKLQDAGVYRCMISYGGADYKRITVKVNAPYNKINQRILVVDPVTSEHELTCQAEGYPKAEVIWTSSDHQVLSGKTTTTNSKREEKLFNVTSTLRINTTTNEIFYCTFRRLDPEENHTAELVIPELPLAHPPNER

IC50 | Binder
5.22 µg/mL | B1
31.1 µg/mL | B2
5.58 µg/mL | B3
37.1 µg/mL | B4
18.8 µg/mL | B5
